Reference: IntAct's records for PubMed 23055042

B1: Protein Bop (Homo sapiens), Q7L3V2 (parent)
chain: MPRGRCRQQGPRIPIWAAANYANAHPWQQMDKASPGVAYTPLVDPWIERPCCGDTVCVRTTMEQKSTASGTCGGKPAERGPLAGHMPSSRPHRVDFCWVPGSDPGTFDGSPWLLDRFLAQLGDYMSFHFEHYQDNISRVCEILRRLTGRAQAWAAPYLDGDLPLPDDYELFCQDLKEVVQDPNSFAEYHAVVTCPLPLASSQLPVAPQLPVVRQYLARFLEGLALDMGTAPRSLPAAMATPAVSGSNSVSRSALFEQQLTKESTPGPKEPPVLPSSTCSSKPGPVEPASSQPEEAAPTPVPRLSESANPPAQRPDPAHPGGPKPQKTEEEVLETEGDQEVSLGTPQEVVEAPETPGEPPLSPGF

Variants of: B1
Details: with vdac1_human VDAC1, P21796
Sequence of vdac1_human VDAC1, P21796 (P21796 whole entry): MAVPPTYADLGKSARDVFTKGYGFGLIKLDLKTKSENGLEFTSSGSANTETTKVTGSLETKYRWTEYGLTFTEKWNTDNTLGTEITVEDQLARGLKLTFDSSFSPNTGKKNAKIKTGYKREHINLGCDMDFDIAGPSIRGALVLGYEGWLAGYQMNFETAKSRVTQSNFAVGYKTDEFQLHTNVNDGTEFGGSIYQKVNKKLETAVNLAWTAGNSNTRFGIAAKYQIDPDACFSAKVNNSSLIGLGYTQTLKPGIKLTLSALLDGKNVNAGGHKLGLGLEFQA

Variant | effect of a mutation on the interaction
L118A | decreasing interaction strength
